The target in assay [1] is pre-existing anti-drug antibodies (ADA) present in human sera. The experiment in a line: ELISA pre-existing ADA binding assay, confirmatory setup, test molecule coated, 40 human sera.
For assay [2] the target is unchanged. The experiment in a line: ELISA pre-existing ADA binding assay, confirmatory setup, test molecule coated, 20 human sera (second row for PRO2230).
Assay [3] has the same target. Nature of the assay: ELISA pre-existing ADA binding assay, confirmatory setup, test molecule coated, 20 human sera. (In general: An ELISA detects its analyte on a solid surface through an enzyme-linked reagent.)
The target is the same in assay [4]. The experiment in a line: ELISA pre-existing ADA binding assay, confirmatory setup, test molecule coated, 20 human sera (second row for PRO1922).

Positions count from the first letter of the chain named.

B1: NM21-1480 (PRO1480) (protein)
chain: DIQMTQSPASLSASVGDRVTITCQASQSIGTYLAWYQQKPGKPPKLLIYRAFILASGVPSRFSGSGSGTDFTLTISSLQPEDFATYYCQSNFYSDSTTIGPNAFGTGTKVTVLGGGGGSEVQLVESGGGLVQPGGSLRLSCAASGFSFSANYYPCWVRQAPGKGLEWIGCIYGGSSDITYDANWTKGRFTISRDNSKNTVYLQMNSLRAEDTAVYYCARSAWYSGWGGDLWGQGTLVTVSSGGGGSGGGGSGGGGSGGGGSIQMTQSPSSLSASVGDRVTITCQASQSISNRLAWYQQKPGKAPKLLIYSASTLASGVPSRFSGSGSGTDFTLTISSLQPEDFATYYCQSTYYGNDGNAFGTGTKVTVLGGGGGSEVQLVESGGGLVQPGGSLRLSCAASGFSFNSDYWIYWVRQAPGKGLEWIASIYGGSSGNTQYASWAQGRFTISRDNSKNTVYLQMNSLRAEDTAVYFCARGYVDYGGATDLWGQGTLVTVSSGGGGSGGGGSIQMTQSPSSLSASVGDRVTITCQSSESVYSNNQLSWYQQKPGQPPKLLIYDASDLASGVPSRFSGSGSGTDFTLTISSLQPEDFATYYCAGGFSSSSDTAFGGGTKLTVLGGGGGSGGGGSGGGGSGGGGSEVQLVESGGGLVQPGGSLRLSCAASGFSLSSNAMGWVRQAPGKGLEYIGIISVGGFTYYASWAKGRFTISRDNSKNTVYLQMNSLRAEDTATYFCARDRHGGDSSGAFYLWGQGTLVTVSS
In assay [1], B1 displayed a % positives of total tested serum samples of 22.5% and a No of positive serum samples above 31.56% CCP (serum samples) of 9.

B2: PRO2761 (protein)
chain: B1 chain with N183Q, L649R, L754Q
In assay [1], B2 registered a % positives of total tested serum samples of 7.5% and a No of positive serum samples above 31.56% CCP (serum samples) of 3.

B3: PRO2764 (protein)
chain: B1 chain with T106C, L130R, V214T, L236Q, L386R, G420C, V470T, L492Q, L649R, L754Q
In assay [1], B3 displayed a % positives of total tested serum samples of 2.5% and a No of positive serum samples above 31.56% CCP (serum samples) of 1.

B4: PRO2759 (protein)
chain: B1 chain with N183Q, L386R, V470T, L492Q
For the molecule B4, in assay [1], the % positives of total tested serum samples was determined as 15% and the No of positive serum samples above 31.56% CCP (serum samples) was 6.

B5: PRO2758 (protein)
chain: B1 chain with L130R, N183Q, V214T, L236Q, L386R, V470T, L492Q, L649R, L754Q
In assay [1], B5 had a % positives of total tested serum samples of 5% and a No of positive serum samples above 31.56% CCP (serum samples) of 2.

B6: PRO2760 (protein)
chain: B1 chain with L130R, N183Q, V214T, L236Q
Consider B6, for which, in assay [1], the % positives of total tested serum samples turned out to be 25% and the No of positive serum samples above 31.56% CCP (serum samples) was found to be 10.

B7: PRO2230 (scFv)
scFv: DIQMTQSPASLSASVGDRVTITCQASQSIGTYLAWYQQKPGKPPKLLIYRAFILASGVPSRFSGSGSGTDFTLTISSLQPEDFATYYCQSNFYSDSTTIGPNAFGTGTKVTVLGGGGGSGGGGSGGGGSGGGGSEVQLVESGGGLVQPGGSLRLSCAASGFSFNSDYWIYWVRQAPGKGLEWIASIYGGSSGNTQYASWAQGRFTISRDNSKNTVYLQMNSLRAEDTAVYFCARGYVDYGGATDLWGQGTLVTVSS
For the molecule B7, in assay [2], the % positives of total tested serum samples was found to be 76% and the No of positive serum samples above 30% CCP (serum samples) was determined as 15. In assay [3], this molecule had a % positives of total tested serum samples of 90% and a No of positive serum samples above 30% CCP (serum samples) of 18.

B8: PRO2762 (protein)
chain: DIQMTQSPASLSASVGDRVTITCQASQSIGTYLAWYQQKPGKPPKLLIYRAFILASGVPSRFSGSGSGTDFTLTISSLQPEDFATYYCQSNFYSDSTTIGPNAFGCGTKVTVLGGGGGSEVQLVESGGGRVQPGGSLRLSCAASGFSFSANYYPCWVRQAPGKGLEWIGCIYGGSSDITYDAQWTKGRFTISRDNSKNTVYLQMNSLRAEDTATYYCARSAWYSGWGGDLWGQGTQVTVSSGGGGSGGGGSGGGGSGGGGSIQMTQSPSSLSASVGDRVTITCQASQSISNRLAWYQQKPGKAPKLLIYSASTLASGVPSRFSGSGSGTDFTLTISSLQPEDFATYYCQSTYYGNDGNAFGTGTKVTVLGGGGGSEVQLVESGGGRVQPGGSLRLSCAASGFSFNSDYWIYWVRQAPGKCLEWIASIYGGSSGNTQYASWAQGRFTISRDNSKNTVYLQMNSLRAEDTATYFCARGYVDYGGATDLWGQGTQVTVSSGGGGSGGGGSIQMTQSPSSLSASVGDRVTITCQSSESVYSNNQLSWYQQKPGQPPKLLIYDASDLASGVPSRFSGSGSGTDFTLTISSLQPEDFATYYCAGGFSSSSDTAFGGGTKLTVLGGGGGSGGGGSGGGGSGGGGSEVQLVESGGGRVQPGGSLRLSCAASGFSLSSNAMGWVRQAPGKGLEYIGIISVGGFTYYASWAKGRFTISRDNSKNTVYLQMNSLRAEDTATYFCARDRHGGDSSGAFYLWGQGTQVTVSS
Regarding B8, in assay [1], the % positives of total tested serum samples is 7.5% and the No of positive serum samples above 31.56% CCP (serum samples) is 3.

B9: PRO2763 (protein)
chain: B8 chain with G610C, G682C
Turning to B9, in assay [1], the % positives of total tested serum samples was determined as 2.5% and the No of positive serum samples above 31.56% CCP (serum samples) is 1.

B10: PRO2765 (protein)
chain: B8 chain with Q183N, G610C, G682C
In assay [1], B10 returned a % positives of total tested serum samples of 2.5% and a No of positive serum samples above 31.56% CCP (serum samples) of 1.

B11: PRO1922 (scFv)
scFv: DIQMTQSPSSLSASVGDRVTITCQASESIYSSLAWYQQKPGKAPKLLIYLASTLASGVPSRFSGSGSGTDFTLTISSLQPEDFATYYCQSTDYTTSTHRNSFGTGTKVTVLGGGGGSGGGGSGGGGSGGGGSEVQLVESGGGLVQPGGSLRLSCAASGFSFSTTYYMCWVRQAPGKGLEWIGCTNTASSVRTYYATWAKGRFTISRDNSKNTVYLQMNSLRAEDTAVYYCARDMGFADYALNLWGQGTLVTVSS
In assay [4], B11 yielded a % positives of total tested serum samples of 80% and a No of positive serum samples above 30% CCP (serum samples) of 16. In addition, in assay [3], the % positives of total tested serum samples worked out at 80% and the No of positive serum samples above 30% CCP (serum samples) came to 16.

These data come from patent US20240084039A1.
